Measurements reported in US20250042974A1, “LIPID MEDIATOR CHAPERONE AND USES THEREOF” (The Children's Medical Center Corporation, priority 2021, published 2025).
“Also recorded” adds a separate entry of the source.

Experiments:
[1] = system: Neutrophils; assay: fMLP-dependent neutrophil ROS generation; assay type: cell-based, mouse; details: ApoM-S1P 100 nM S1P, ApoA1-Iloprost 160 nM drug, area under the curve
Description: Peritoneal Neutrophils were isolated from C57Bl/6 mice after thioglycolate elicitation. Thioglycolate (2 ml of 2% v/v) resuspended in water was administered by intraperitoneal injection. After 4 hours, mice were euthanized and 5 ml of HBSS was injected intraperitoneally, the abdomen was messaged for 1 minute and the peritoneal fluid was removed. The resulting cells were pelleted, RBCs were lysed with ACK buffer, re-pelleted and resuspended in PBS-glucose. Cells were counted, 5×10^5 cells were dispersed into 96 well clear bottom plates containing luminol 100 mM and 10 U/ml of horseradish peroxidase and read for blank background. F-Met-Leu-Phe (fMLP; 10 μM) was added and plates were read on a SpectraMaxL1 (Molecular Devices, San Jose, CA) over 5 minutes as described previously. The area under the curve was calculated by using GraphPad Prism 7 (GraphPad Software, San Diego, CA).

[2] = system: ICAM-1; assay: TNF-α-induced ICAM-1 expression in HUVEC (western blot); assay type: cell-based, human; details: 10 min pretreatment, TNFα 10 ng/ml 5 hours, 200 μg/ml
Description: HUVECs were plated as described above. After 24 hours cells were shifted to M199 media supplemented with 1% FCS, 8 mM Glutamine, 1× Pen-Strep. After 30 minutes, cells were pretreated for 10 minutes with media, ApoM-Fc-S1P (100 nM S1P), Iloprost (100 nM), ApoA1-ApoM (200 μg/ml), ApoA1-ApoM-Iloprost (200 ug/ml; 100 nM Iloprost) or ApoA1-ApoM-S1P (200 μg/ml 100 nM S1P) or in combinations and subsequently treated with TNF-α (10 ng/ml). After 5 hours, cells were lysed with cell lysis buffer (TBS-T; 20 mM Tris-pH8, 160 mM NaCl, 1% Triton, 1× protease inhibitor cocktail (Sigma)), collected and centrifuged at 20,000×g for 5 minutes at 4° C., extracts were analyzed by 10% SDS-PAGE, transferred to nitrocellulose membrane (Bio-Rad), blocked in 5% milk, and probed with antibodies to ICAM-1 (1:1000, sc-8439, Santa Cruz Biotech) and Actin (1:5000, sc-8432, Santa Cruz Biotech). Blots were developed with appropriate secondary antibodies linked to HRP and visualized by chemiluminescence (Immobilon Western, EMD Millipore) using a ChemiDoc Imaging (Biorad).

[3] = system: HUVEC; assay: TEER analysis of endothelial barrier function; assay type: cell-based, human; details: HUVEC; S1P 10-300 nM, A1M 0.8-24 μg/ml; unloaded controls up to 24 μg/ml
Description: Transendothelial Electrical Resistance (TEER) was performed on HUVEC as described previously (Swendeman et al, 2017). Essentially, HUVECs were maintained in HUVEC Growth Medium (HGM; M199 medium supplemented with 10% FCS (Corning), 1:100 Pen-Strep (Sigma), 8 mM Glutamine (Sigma), Heparin (Sigma, 100 U, LMW) and Sheep Brain Extract prepared (REF). All cultures were maintained on Fibrobronectin (2 μg/ml) coated plates. For TEER analysis a 96 well ECIS system (96W10idf PET array, Applied BioPhysics) was employed. Wells were coated with Fibronectin (2 μg/ml) resuspended in saline for 30 minutes at room temp. HUVECs were harvested, resuspended in HGM at a cell density of 25-30×10^3 cells/well and allowed to adhere overnight. Prior to analysis, culture media was removed and replaced with M199 media supplemented with Pen-Strep/Glutamine and 1% FCS for 30 minutes. For stimulation studies, either Iloprost (Cayman Biochemicals) or Iloprost loaded onto ApoA1 or ApoA1-ApoM chaperones, or S1P prepared on ApoA1-ApoM or ApoM-Fc chaperones were added to cultures and TEER studies were performed from 3-24 hours.

[4] = system: NF-κB; assay: TNFα-induced NF-κB luciferase reporter assay in HMEC; assay type: cell-based, human
Description: TNFα-dependent NF-κB signaling was determined by using an NFκB-Luciferase based reporter assay system (pGL4.32[luc2P/NF-κB-RE/Hygro]; Promega). A stable NFκB reporter cell line in human microvascular endothelial cells (HMEC-1; ATCC) was created. HMEC were maintained in 10% FCS/Pen-Strep MCDB media supplemented with 2 mM L-Glutamine (Sigma), EGF (2 ng/ml; R&D systems) and Hydrocortisone (1 ng/ml; Sigma). […] The 5×10^5 reporter cells were distributed to 12 well plates and allowed to adhere for 24 hours. Media was replaced with MCDB media supplemented with 1% FCS, L-Glutamine. […] Samples were extracted using cell lysis buffers (Promega), luciferin substrate was added and the plates were measured for […] at 470 nm for 8-15 minutes in a SpectraMax L 96-well plate reader (Molecular Devices).

Molecule | inhibition of neutrophil ROS generation [1] [%] | inhibition of TNFα-induced ICAM1 expression [2] | enhancement of endothelial barrier function (TEER) [3] | inhibition of TNFα-induced NF-κB activity at higher doses ([4]; 100-400 μg/ml, bi-phasic dose-response) | inhibition of TNFα-induced NF-κB activity ([4]; low doses 25-50 μg/ml) [%]
ApoM-S1P: ApoM-bound S1P as named in FIG. 6 results; chaperone form not specified (protein, UniProt O95445 1-188, looked up, bound S1P, chaperone form not specified) Apolipoprotein M: MFHQIWAALLYFYGIILNSIYQCPEHSQLTTLGVDGKEFPEVHLGQWYFIAGAAPTKEELATFDPVDNIVFNMAAGSAPMQLHLRATIRMKDGLCVPRKWIYHLTEGSTDLRTEGRPDMKTELFSSSCPGGIMLNETGQGYQRFLLYNRSPHPPEKCVEEFKSLTSCLDSKAFLLTPRNQEACELSNN | ~42 |  |  |  | 
A1M: recombinant fusion protein of Apolipoprotein A1 and Apolipoprotein M with GGGGS linker and 6x His tag (SEQ ID NO: 23) (protein) MKAVVLAVALVFLTGSQAWHVWQQDEPQSQWDKVKDFANVYVDAVKDSGRDYVSQFESSSLGQQLNLNLLENWDTLGSTVSQLQERLGPLTRDFWDNLEKETDWVRQEMNKDLEEVKQKVQPYLDEFQKKWKEDVELYRQKVAPLGAELQESARQKLQELQGRLSPVAEEFRDRMRTHVDSLRTQLAPHSEQMRESLAQRLAELKSNPTLNEYHTRAKTHLKTLGEKARPALEDLRHSLMPMLETLKTKAQSVIDKASETLTAQTRTRPLGGGGSNQCPEHSQLTALGMDDTETPEPHLGLWYFIAGAASTTEELATFDPVDNIVFNMAAGSAPRQLQLRATIRTKSGVCVPRKWTYRLTEGKGNMELRTEGRPDMKTDLFSSSCPGGIMLKETGQGYQRFLLYNRSPHPPEKCVEEFQSLTSCLDFKAFLVTPRNQEACPLSSKHHHHHH |  | inhibiting downstream inflammatory ICAM1 expression | no functional barrier protection; also recorded: did not induce endothelial barrier enhancement | not as inhibitory | ~25
